Laboratory results reported in US20240043507A1 (RQ BIOTECHNOLOGY, published 2024).
Numbering of substitutions follows the chain as printed.

B1: mAb 45 (antibody, V domains shown)
VH: QVQLVESGGGVVQPGRSLRLSCAASGFTFSTYAMHWVRQAPGKGLEWVAVLSYDGSNKYYADSVKGRFTISRDNSKNTLYLQMNSLRAEDTAVYYCAKGGSYAYYYYMDVWGKGTTVTVSS
VL: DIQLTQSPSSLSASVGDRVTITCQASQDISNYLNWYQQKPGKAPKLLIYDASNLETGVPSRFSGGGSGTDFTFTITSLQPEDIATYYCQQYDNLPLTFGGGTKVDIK
notes: also called antibody 45
B2: Fab of antibody 88 (Fab, V domains shown)
VH: QLQLQESGPGLVKPSQTLSLTCTVSGGSISSGSYNWTWIRQPAGKGLEWIGRIYNSGSTNYNPSLKSRVTISVDTSKNQLSLKVRSVTAADTAVYYCARHCSGGTCYPKYYYGMDVWGQGTTVTVSS
VL: QSALTQPPSVSEAPRQRVTISCSGSSSNIGNNAVNWYQQFPGKAPKLLIYYDDLLPSGVSDRFSGSKSGTSASLAISGVQSEDEADYYCAAWDDSLNVVVFGGGTKLTVL
notes: also called 88 Fab; Fab 88
B3: Fab of chimeric antibody 253H165L (Fab, V domains shown)
VH: not shown
VL: DIVMTQSPGTLSLSPGERATLSCRASQSVRSSYLAWYQQKPGQAPRLLIYGASRRGTGIPDRFSGSGSGTDFTLTISRLEPEDFAVYYCQQYGSSPWTFGQGTKVEIK
notes: also called 253H165L Fab
B4: chimeric antibody 253H165L, full-length IgG (antibody, V domains shown)
VH: not shown
VL: B3 VL
notes: also called 253H165L IgG
B5: Fab of antibody 40 (Fab, V domains shown)
VH: QVQLVESGGGLVQPGGSLRLSCAVSGFTVSRNYMSWVRQAPGKGLEWVSLIYSGGSTFYADSVKGRFTISRDNSKNTLYLQMNSLRAEDTAVYYCARDLFHRSGYHDYWGQGTLVTVSS
VL: not shown
notes: also called 40 Fab; Fab 40
B6: Fab of antibody 158 (Fab, V domains shown)
VH: EVQLLESGGDLIQPGGSLRLSCAASGVTVSSNYMSWVRQAPGKGLEWVSIIYPGGSTFYADSVKGRFTISRDNSKNTLYLQMHSLRAEDTAVYYCARDLGSGDMDVWGKGTTVTVSS
VL: DIVMTQSPSFLSASVGDRVTITCRASQGISSYLAWYQQKPGKAPKLLIQAASTLQSGVPSRFSGSGSGTEFTLTISSLQPEDFATYYCQQLNSYRYTFGQGTKVEIK
notes: also called 158 Fab; Fab 158
B7: Fab of antibody 316 (Fab, V domains shown)
VH: not shown
VL: QAVLTQPPSASGSPGQSVTISCTGTSSDVGGYNYVSWYQQHPGKAPKLMIYEVSKRPSGVPDRFSGSKSGNTASLTVSGLQAEDEADYYCSSYAGSNHWVFGGGTKLTVL
notes: also called 316 Fab; Fab 316
B8: antibody 318 (antibody, V domains shown)
VH: QVQLVQSGPEVKKPGTSVKVSCKASGFTLTSSAMQWVRQARGQRLEWIGWIVVGSGNTNYAQKFQERVTITRDMSTSTAYMELSSLRSEDTAVYYCAAGRGYNSDFDYWGQGTLVTVSS
VL: AIRMTQSPGTLSLSPGERATLSCRASQSVSSSYLAWYQQRPGQAPRLLIYGTSSRATGIPDRFSGSGSGTDFTLTISRLEPEDFAVYYCQQYGYSVYTFGQGTKVDIK
notes: also called mAb 318
B9: antibody 281 (antibody, V domains shown)
VH: QVQLVESGGGLVQPGGSLRLSCAASGFPFSIYWMSWVRQAPGKGLEWVANIKQDGSEKYYVDSVKGRFTISRDNAKNSLYLHMNSLRGEDTAVYYCASRYYDFRPEAWFDYWGQGTLVTVSS
VL: not shown
B10: antibody 316 (antibody, V domains shown)
VH: not shown
VL: B7 VL
B11: antibody 398 (antibody, V domains shown)
VH: QVQLVESGGGLVQPGGSLRLSCAASGFTVSSNYMTWVRQAPGKGLEWVSVIYSGGSTYYADSVKGRFTISRDNSKNTLYLQMNSLRADDTAVYYCARDSTADYDFWSGYYVGAFHIWGQGTMVTVSS
VL: B7 VL with A2T, P8A, A10V, V18I, S54T, H98N
notes: also called mAb 398
B12: Fab of antibody 318 (Fab, V domains shown)
VH: B8 VH
VL: B8 VL
B13: Fab of antibody 281 (Fab, V domains shown)
VH: B9 VH
VL: not shown
B14: Fab of antibody 175 (Fab, V domains shown)
VH: EVQLVESGGGLIQPGGSLRLSCAASGLTVSRNYMSWVRQAPGKGLEWVSLIYSGGSTYYADSVKGRFTISRDNSKNTLYLQMNSLRAEDTAVYYCARDLRGEVWGQGTMVTVSS
VL: not shown
B15: Fab of antibody 58 (Fab, V domains shown)
VH: QVQLVESGGGLVQPGRSLRLSCAASGFTFDDYAMHWVRQPPGKGLEWVSGVSWNSGTIGYADSVKGRFIISRDNAKNSLYLQMNSLKAEDTALYYCAREVGGTFGVLISREGGLDYWGQGTLVTVSS
VL: SYELTQPPSVSVAPGQTARITCGGNTIGSKSVHWYQQRPGQAPVLVVYDDSDRPSGIPERFSGSNSGNTATLTISRVEAGDEADYYCQVWDSSSDRVVFGGGTKLTVL
B16: Fab of antibody 398 (Fab, V domains shown)
VH: B11 VH
VL: B7 VL with A2T, P8A, A10V, V18I, S54T, H98N
B17: Fab of antibody 269 (Fab, V domains shown)
VH: QVQLVESGGGLIQPGGSLRLSCAASGLTVNRNYMSWIRQAPGKGLEWVSVIYSGGSTFYADSVKGRFTISRDNSKNTLSLQMNSLRAEDTAIYYCARDFYEGSFDIWGQGTMVTVSS
VL: AIQLTQSPSFLSASIGDRVTITCRASQGISSYLAWYQQKPGKAPKLLIYAASTLQSGVPSRFSGSGSGTEFTLTISSLQPEDFASYYCQQLNSYPAPVFGPGTKVDIK
notes: also called 269 Fab; COVOX-269
B18: Fab of antibody 222 (Fab, V domains shown)
VH: EVQLVESGGGLIQPGGSLRLSCAASGLTVSSNYMSWVRQAPGKGLEWVSVIYSGGSTFYADSVKGRFTISRDNSKNTLYLQMNSLGAEDTAVYYCARGEGSPGNWFDPWGQGTLVTVSS
VL: DVVMTQSPGTLSLSPGERATLSCRASQSVPSSYLAWYQQKPGQAPRLLIYGASTRATGIPDRFSGSGSGTDFTLTISRLEPEDFAVYYCQHYDTSPRFGGGTKVDIK
B19: Fab of antibody 159 (Fab, V domains shown)
VH: EVQLVESGGGVVQPGRSLRLSCAASGFTFSSYGMHWVRQAPGKGLEWVALISYDGGNRYYADSVKGRFTISRDNSKNTLYLQMNRLRAEDTAMYYCAKDRDDGWDWYYFMDVWGKGTTVTVSS
VL: DIQLTQSPGTLSLSPGERATLSCRASQSISGNYLAWYQHKPGQAPRLLIYGASTRATGIPDRFSGSGSGTDFTLTISRLEPEDFAVYYCQQYGSSYTFGQGTKVEIK

molecular target: SARS-CoV-2 spike on whole virus (SARS-CoV-2/human/AUS/VIC01/2020, Victoria) (SARS-CoV-2, UniProt P0DTC2 14-1273); assay: cell-based or functional assay

Binder	Neutralisation IC50 (FRNT) [µg/mL]
B1	2

molecular target: T1, SARS-CoV-2 spike protein on authentic virus, strain SARS-CoV-2/human/AUS/VIC01/2020 (Victoria) (SARS-CoV-2, UniProt P0DTC2 14-1273); assay: cell-based or functional assay

Binder	Neutralisation IC50 [nM]
B2	6.95
B3	5.22
B4	0.03
B5	45.7
B6	4.12
B7	27.6

molecular target: spike protein of SARS-CoV-2 strain B.1.1.7 (SARS-CoV-2, UniProt P0DTC2 14-1273); assay: cell-based or functional assay

Binder	IC50 (FRNT neutralisation) [µg/mL]
B8	0.185
B9	0.012
B10	0.024
B11	0.18

molecular target: spike protein of SARS-CoV-2 strain P.1 (SARS-CoV-2, UniProt P0DTC2 14-1273); assay: cell-based or functional assay

Binder	IC50 (FRNT neutralisation) [µg/mL]
B8	0.083
B9	> 10
B10	> 10
B11	> 10

molecular target: spike protein of SARS-CoV-2 strain B.1.351 (SARS-CoV-2, UniProt P0DTC2 14-1273); assay: cell-based or functional assay

Binder	IC50 (FRNT neutralisation) [µg/mL]
B8	0.019
B9	> 10
B10	> 10
B11	> 10

molecular target: spike protein of SARS-CoV-2 strain Victoria (SARS-CoV-2/human/AUS/VIC01/2020) (SARS-CoV-2, UniProt P0DTC2 14-1273); assay: cell-based or functional assay

Binder	IC50 (FRNT neutralisation) [µg/mL]
B8	0.029
B9	0.005
B10	0.018
B11	0.091

molecular target: T1, SARS-CoV-2 spike protein on authentic …; assay: calculated from whole-virus ELISA binding and FRNT50

Binder	% Occupancy [%]
B2	85.2
B3	51.3
B4	24.5
B5	97.4
B6	52.7
B7	74

molecular target: T2, SARS-CoV-2 receptor binding domain with N501Y (SARS-CoV-2, UniProt P0DTC2 330-532); assay: BLI, RBD immobilised on AR2G biosensor, 1:1 fit
T2 construct: range 330-532; also called RBD-N501Y; RBD N501Y

Binder	Kd [nM]
B12	1.99
B2	0.65
B13	4.05
B14	2.54
B5	0.97
B6	1.57
B15	0.55
B7	2.81
B16	1.18
B17	45.4
B18	0.39

molecular target: T1, SARS-CoV-2 spike protein on authentic …; assay: whole-virus capture ELISA, half-maximal binding

Binder	Kd [nM]
B2	1.21
B3	5.02
B4	0.09
B5	1.23
B6	3.73
B7	8.76
B19	0.29
